± gives the standard deviation of the averaged measurements.
Key:
Saccharomyces cerevisiae [1] = test: protein stability index of tFT-peptide fusion (C-terminal peptide) (PSI (0-1 scale)); higher = more stable (slower turnover); conditions: genetic background: wild type; temperature: 30 C
Saccharomyces cerevisiae [2] = test: as above
Description: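 MPS profiling in S. cerevisiae of the tFT-X12 degron library: putative degron peptides plus stable controls, 12 aa, fused to the C-terminus of a sfGFP-mCherry timer. Cells are FACS-sorted into 8 mCherry/sfGFP bins and deep-sequenced. PSI runs from 0 (unstable) to 1 (stable). Backgrounds are wild type, das1Δ and doa10Δ at 30 °C, and wild type, das1Δ, cdc34-1 and cdc53-1 at 37 °C; 2-3 technical replicates each.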

[3] = genetic background: cdc34-1, temperature: 37 C
[4] = genetic background: cdc53-1, temperature: 37 C
[5] = genetic background: das1 deletion, temperature: 30 C
[6] = genetic background: das1 deletion, temperature: 37 C
[7] = genetic background: doa10 deletion, temperature: 30 C
[8] = genetic background: wild type, temperature: 30 C
[9] = genetic background: wild type, temperature: 37 C
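Also: PSI is a weighted mean of sequencing reads over stability bins, variants kept only with over 10 reads, mCherry proximal and sfGFP distal, peptide attached via GGGS linker.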

Sequence	protein stability index (Saccharomyces cerevisiae [1])	protein stability index (Saccharomyces cerevisiae [2]; [3])	protein stability index (Saccharomyces cerevisiae [2]; [4])	protein stability index (Saccharomyces cerevisiae [2]; [5])	protein stability index (Saccharomyces cerevisiae [2]; [6])	protein stability index (Saccharomyces cerevisiae [2]; [7])	protein stability index (Saccharomyces cerevisiae [2]; [8])	protein stability index (Saccharomyces cerevisiae [2]; [9])
IYITFQIYVSDM	0.229 ± 0.018	0.104 ± 0.018	0.172 ± 0.0076	0.161 ± 0.019	0.267 ± 0.0076	0.0912 ± 0.04	0.127 ± 0.0083	0.244 ± 0.032
LLCSPPPLTVPA	0.454 ± 0.025	0.394 ± 0.044	0.4424 ± 0.00065	0.324 ± 0.045	0.478 ± 0.017	0.275 ± 0.0087	0.327 ± 0.034	0.44 ± 0.0091
SSVCVLVSCVLG	0.4818 ± 0.0031	0.462 ± 0.019	0.5241 ± 0.0032	0.375 ± 0.037	0.5353 ± 0.0013	0.363 ± 0.013	0.382 ± 0.022	0.5117 ± 0.00052
KSARLYVTSFLC	0.194 ± 0.0022	0.571 ± 0.0067	0.682 ± 0.035	0.623 ± 0.012	0.739 ± 0.023	0.107 ± 0.012	0.123 ± 0.0064	0.179 ± 0.02
GFFFLFFVSAFI	0.407 ± 0.026	0.368 ± 0.021	0.4553 ± 0.0027	0.327 ± 0.034	0.485 ± 0.011	0.2992 ± 0.0012	0.311 ± 0.064	0.445 ± 0.0067
VFGVWVVVGCVG	0.248 ± 0.0043	0.028 ± 0.007	0.101 ± 0.03	0.149 ± 0.037	0.215 ± 0.01	0.123 ± 0.019	0.143 ± 0.013	0.197 ± 0.013
NTYKICVVSVTS	0.413 ± 0.018	0.449 ± 0.014	0.552 ± 0.021	0.355 ± 0.047	0.587 ± 0.0069	0.267 ± 0.019	0.299 ± 0.035	0.578 ± 0.018
SFPPLPPLPLPP	0.571 ± 0.2	0.64 ± 0.032	0.688 ± 0.0089	0.578 ± 0.0094	0.6778 ± 0.0031	0.594 ± 0.014	0.5917 ± 0.0043	0.6445 ± 0.0054
RLDAPGLSRTEN	0.513 ± 0.12	0.66 ± 0.04	0.68 ± 0.011	0.647 ± 0.044	0.683 ± 0.0075	0.66 ± 0.026	0.646 ± 0.078	0.671 ± 0.017
LFRRMWVEIFYV	0.253 ± 0.046	0.439 ± 0.044	0.541 ± 0.043	0.423 ± 0.029	0.566 ± 0.015	0.0969 ± 0.016	0.119 ± 0.0081	0.155 ± 0.021
RCSLFAKQVVSL	0.453 ± 0.074	0.381 ± 0.032	0.442 ± 0.029	0.451 ± 0.012	0.405 ± 0.0067	0.437 ± 0.021	0.43 ± 0.0057	0.37093 ± 0.00035
LDRLTTWTLIVR	0.471 ± 0.031	0.457 ± 0.031	0.455 ± 0.011	0.379 ± 0.026	0.524 ± 0.0076	0.413 ± 0.0057	0.365 ± 0.021	0.482 ± 0.0083
CLLLFFIFLLFL	0.41 ± 0.05	0.484 ± 0.065	0.452 ± 0.0092	0.387 ± 0.036	0.463 ± 0.032	0.49 ± 0.026	0.376 ± 0.024	0.493 ± 0.029
GGVSPRSSMDLL	0.434 ± 0.21	0.6849 ± 0.0066	0.764 ± 0.01	0.646 ± 0.023	0.736 ± 0.029	0.648 ± 0.0075	0.645 ± 0.012	0.7319 ± 0.0035
GGFRVLLWCVVW	0.28 ± 0.016	0.19 ± 0.046	0.3237 ± 0.0018	0.214 ± 0.041	0.399 ± 0.0044	0.184 ± 0.0074	0.208 ± 0.03	0.35 ± 0.028
KRSPPPATPSSG	0.24 ± 0.034	0.6827 ± 0.0047	0.73 ± 0.013	0.631 ± 0.025	0.76 ± 0.043	0.6035 ± 0.0057	0.623 ± 0.0081	0.704 ± 0.012
RAQQRVKERYIE	0.432 ± 0.0045	0.74 ± 0.046	0.729 ± 0.014	0.669 ± 0.022	0.7311 ± 0.0059	0.517 ± 0.058	0.581 ± 0.067	0.69 ± 0.0077
GGVWVLGVAVVW	0.348 ± 0.062	0.114 ± 0.014	0.132 ± 0.029	0.246 ± 0.019	0.349 ± 0.017	0.207 ± 0.0064	0.236 ± 0.023	0.275 ± 0.0036
FWVNFLFVLFIL	0.296 ± 0.049	0.257 ± 0.023	0.233 ± 0.018	0.261 ± 0.036	0.4 ± 0.027	0.263 ± 0.005	0.197 ± 0.022	0.307 ± 0.02
RFIYYCVDVFFS	0.176 ± 0.033	0.0337 ± 0.01	0.147 ± 0.025	0.123 ± 0.049	0.215 ± 0.021	0.0847 ± 0.031	0.1 ± 0.034	0.19 ± 0.037
FVVVCWFWGGGF	0.425 ± 0.026	0.3213 ± 0.0031	0.406 ± 0.0042	0.283 ± 0.036	0.465 ± 0.013	0.257 ± 0.012	0.27 ± 0.048	0.429 ± 0.021
RVITRMLLMVIR	0.43 ± 0.036	0.318 ± 0.056	0.365 ± 0.031	0.353 ± 0.029	0.512 ± 0.019	0.493 ± 0.0081	0.359 ± 0.011	0.47449 ± 0.00047
YCCDYFMFVLVV	0.255 ± 0.033	0.148 ± 0.0029	0.189 ± 0.024	0.206 ± 0.044	0.3012 ± 0.0022	0.184 ± 0.009	0.183 ± 0.032	0.248 ± 0.01
GVAFGLLVWLLG	0.378 ± 0.071	0.432 ± 0.021	0.509 ± 0.014	0.357 ± 0.026	0.5307 ± 0.0018	0.304 ± 0.02	0.326 ± 0.033	0.484 ± 0.0068
SVRGGSFLVHLC	0.337 ± 0.043	0.614 ± 0.096	0.758 ± 0.011	0.636 ± 0.018	0.7525 ± 0.0012	0.154 ± 0.017	0.168 ± 0.015	0.337 ± 0.015
FCLFMFVPLLPL	0.453 ± 0.052	0.531 ± 0.032	0.589 ± 0.013	0.455 ± 0.036	0.5868 ± 0.0043	0.4421 ± 0.0041	0.452 ± 0.027	0.5642 ± 0.003
GALWVLGVVVGG	0.467 ± 0.018	0.461 ± 0.0066	0.505 ± 0.0085	0.365 ± 0.026	0.537 ± 0.0094	0.329 ± 0.012	0.364 ± 0.027	0.511 ± 0.013
TPLLPPSPPPSR	0.3328 ± 0.0026	0.647 ± 0.02		0.27 ± 0.02	0.46 ± 0.0089	0.244 ± 0.0028	0.277 ± 0.017	0.4348 ± 0.0042
MDLVSEYKIKVN	0.31 ± 0.004	0.62 ± 0.026	0.712 ± 0.053	0.56 ± 0.034	0.704 ± 0.02	0.176 ± 0.006	0.226 ± 0.038	0.473 ± 0.0088
LVDSRIVWLFVS	0.0955 ± 0.039	0.325 ± 0.095	0.584 ± 0.034	0.439 ± 0.026	0.632 ± 0.024	0.0761 ± 0.016	0.0713 ± 0.017	0.0698 ± 0.021

— the supplement of paper PMC10724198
